The assay deals with recombinant RBD (ThermoFisher, RP-87678) (SARS-CoV-2, UniProt P0DTC2 319-541). Kind of assay: BLI.

B1: GST-tagged SR6v15 (VHH)
VHH: EVQLVESGGGLVQAGDSLRLSCAASGDSYILWRMGWFRQAPGKEREFVAAISLDGQFTNYADSVRGRFSISADSAKYTVYLQMNSLKPEDTAVYYCAALPFLDYWGQGTQVTVSS
Usually koff stands for the first-order rate constant of dissociation. Turning to B1, the koff was determined as 0.00175 s⁻¹.

The record behind these values is paper PMC8448731 (2021).
